Assay results as given in article PMC10336103, “ResR/McdR-regulated protein translation machinery contributes to drug resilience in Mycobacterium tuberculosis” (Communications Biology, 2023).

Experiments:
Test in all cases: EMSA
[1] = test system: ResR/McdR (ResR1-225) (Mycobacterium tuberculosis Erdman)
[2] = test system: ResR/McdRMS (Mycobacterium smegmatis)
[3] = test system: ResR/McdR17-225 (Mycobacterium tuberculosis Erdman)

Work on PwhiB2_FL yielded a Kd [1] of 330 nM.

With PrplN_FL the Kd [2] was 1400 nM, the Kd [1] was 780 nM and the Kd [3] was 1170 nM.
